Data on 2 molecules can be found in paper PMC3278529 (Free radical biology & medicine, 2011).

Residue numbers refer to the chain shown, from its start. The star is where a group is joined. Biotin = O=C1N[C@H]2[C@H](CS[C@H]2CCCCC(=O)*)N1

Assay [1] deals with p47^phox (Homo sapiens, UniProt P14598). Description: ELISA of p47phox-p22phox peptide interaction. It is filed as binding. (In an ELISA, binding on a coated surface is turned into a signal by an enzyme label.)
Assay [2] concerns the target T1, His-p47^phox wild type (human, UniProt P14598 1-390).
T1 sequence (looked up): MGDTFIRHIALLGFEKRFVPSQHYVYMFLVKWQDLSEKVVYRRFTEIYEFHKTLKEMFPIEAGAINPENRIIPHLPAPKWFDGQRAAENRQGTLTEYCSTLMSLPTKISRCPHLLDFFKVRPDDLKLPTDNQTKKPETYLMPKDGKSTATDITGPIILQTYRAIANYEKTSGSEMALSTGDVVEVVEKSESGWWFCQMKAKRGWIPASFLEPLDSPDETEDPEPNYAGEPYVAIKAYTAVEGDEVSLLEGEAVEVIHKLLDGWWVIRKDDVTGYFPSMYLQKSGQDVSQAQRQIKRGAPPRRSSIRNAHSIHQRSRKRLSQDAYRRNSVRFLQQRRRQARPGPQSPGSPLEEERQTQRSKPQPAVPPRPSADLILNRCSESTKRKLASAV
Description: ELISA.

Assay [3] has as its target T2, C98G-p47^phox (human, UniProt P14598 1-390, C98G).
T2 sequence (looked up): T1 sequence (looked up) with C98G
The assay can be described thus: ELISA.

In assay [4] the target is T3, C111A-p47^phox (human, UniProt P14598 1-390, C111A).
T3 sequence (looked up): T1 sequence (looked up) with C111A
Description: ELISA.

Assay [5] has as its target T4, C196A-p47^phox (human, UniProt P14598 1-390, C196A).
T4 sequence (looked up): T1 sequence (looked up) with C196A
The assay can be described thus: ELISA.

In assay [6] the target is T5, C378A-p47^phox (human, UniProt P14598 1-390, C378A).
T5 sequence (looked up): T1 sequence (looked up) with C378A
The assay can be described thus: ELISA.

Chain of p47^phox (P13498 2-195, one chain of several): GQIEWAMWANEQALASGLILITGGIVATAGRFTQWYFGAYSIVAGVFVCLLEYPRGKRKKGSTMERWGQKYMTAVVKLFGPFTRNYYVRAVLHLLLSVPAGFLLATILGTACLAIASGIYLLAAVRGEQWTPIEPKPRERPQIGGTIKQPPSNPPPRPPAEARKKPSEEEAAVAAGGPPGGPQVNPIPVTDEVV

A word on the IC50: it is the concentration that inhibits the measured activity by half. In assay [1], `O=C1C=CC(=O)c2ccccc21` [1,4-naphthoquinone] came in with an IC50 of 0.7 µM.

B1: proline-rich p22^phox peptide (biotin-p22^phox) (peptide)
peptide: Biotin-SGSGPPSNPPPRPPAEARK-NH2
SMILES: C[C@H](NC(=O)[C@H](CCC(=O)O)NC(=O)[C@H](C)NC(=O)[C@@H]1CCCN1C(=O)[C@@H]1CCCN1C(=O)[C@H](CCCNC(=N)N)NC(=O)[C@@H]1CCCN1C(=O)[C@@H]1CCCN1C(=O)[C@@H]1CCCN1C(=O)[C@H](CC(N)=O)NC(=O)[C@H](CO)NC(=O)[C@@H]1CCCN1C(=O)[C@@H]1CCCN1C(=O)CNC(=O)[C@H](CO)NC(=O)CNC(=O)[C@H](CO)NC(=O)CCCC[C@@H]1SC[C@@H]2NC(=O)N[C@@H]21)C(=O)N[C@@H](CCCNC(=N)N)C(=O)N[C@@H](CCCCN)C(N)=O
Regarding B1, the binding result in assay [2], in assay [3], in assay [4], in assay [5] and in assay [6] was “binds” each time.
